Source: patent US5928941

Test system: RKLF full length (Homo sapiens)
Experiment: cell_activity
Details: BAEC cotransfection, CAT repression

## CAC-tkCAT reporter (single beta-globin CACCC site)
  activity (% decrease in promoter activity): 90
